{"source": "patent US11891634B2", "about": "“PDE5A destabilizing domains” (The Board of Trustees of the Leland Stanford Junior …, priority 2017, dated 2024)", "molecules": {"B1": {"name": "PDE5AC (#42): AcGFP fused to C-terminal DD 535-860 of PDE5A (E535D, K555R, F564S, Q589R, K630R, C677R, N742S, I799T, M816A), SEQ ID NO. 28 (protein)", "chain": "DETRELQSLAAAVVPSAQTLRITDFSFSDSELSDLETALCTIRMFTDLNLVQNFRMKHEVLCRWILSVKKNYRKNVAYHNWRHAFNTAQCMFAALRAGKIQNKLTDLEILALLIAALSHDLDHRGVNNSYIQRSEHPLAQLYRHSIMEHHHFDQCLMILNSPGNQILSGLSIEEYKTTLKIIKQAILATDLALYIKRRGEFFELIRKSQFNLEDPHQKELFLAMLMTACDLSAITKPWPIQQRIAELVATEFFDQGDRERKELNTEPTDLMNREKKNKIPSAQVGFIDAICLQLYEALTHVSEDCFPLLDGCRKNRQKWQALAEQQ", "modifications": "/note=“Description of Artificial Sequence Synthetic Destabilizing Domain (DD)”"}}, "key": {"[1]": {"test_system": "NIH3T3 cells expressing AcGFP-PDE5A fusions", "experiment": "FACS analysis of C-terminal PDE5A mutants (AcGFP-PDE5A fusions), Sildenafil vs vehicle", "assay_type": "cell-based, mouse", "settings": "Table 2, 24 hours; for Mean Fluorescence intensity: NIH3T3", "protocol": "The NIH3T3 cell line was cultured in DMEM supplemented with 10% heat-inactivated donor bovine serum (Invitrogen), 2 mM glutamine, 100 U/ml penicillin and 100 μg/ml streptomycin.\nThe ΦNX ecotropic packaging cell line was transfected using standard Lipofectamine 2000 protocols. Viral supernatants were harvested 48 hours, post transfection, filtered and concentrated 10-fold using Amicon Ultra centrifugal filter device with a 100kDa cutoff. NIH 3T3 cells were incubated with concentrated retroviral supernatants supplemented with 4 μg/ml polybrene for 4 hours at 37° C. Cells were washed once with PBS and cultured in growth media for 24-36 hours to allow for viral integration.\nThe transduced NIH3T3 cells were subjected to analysis using fluorescence-activated cell sorting (FACS) to screen the libraries of PDE5A mutants. 24 hours prior to analysis, transduced NIH3T3 cells were plated at 1×10^5 cells per well of a 12-well plate. Cells were removed from the plate using PBS and 2 mM EDTA, washed once with PBS, and resuspended in 200 μL, PBS. […]\nTo identify destabilizing domains that are responsive to the PDE5A ligand, Sildenafil, a cell-based screening assay was employed in which the fluorescence of green fluorescent protein derived from Aequorea coerulescens (AcGFP) served as an indicator of PDE5A stability. […]\nA library of AcGFP-PDE5A fusions i.e., C-terminal PDE5A mutants was screened using the cell-based screening assay described previously to identify C-terminal destabilizing domains. […] The stabilization ratio was calculated as the fold change in GFP intensity of the AcGFP-PDE5A construct in Sildenafil treated sample compared to vehicle alone treated sample. […]\nResidue D764 was identified as a mutational hotspot from sequence analysis. […] AcGFP-PDE5A variants were evaluated for Sildenafil dependent stabilization via FACS as described previously. […] The stabilization ratio was calculated as the fold change in GFP intensity of the AcGFP-PDE5A construct in Sildenafil treated sample compared to vehicle alone treated sample. […]"}, "[2]": {"test_system": "HCT 116 cells transduced with the PDE5A DD derived GFP constructs", "experiment": "Response to Tadalafil, GFP expression by FACS in HCT116", "assay_type": "cell-based, human", "settings": "for MFI / Stabilization ratio with Tadalafil: 48 hours, HCT116", "protocol": "PDE5AN (#3) was cloned as AcGFP fusion into pELNS vector carrying mCherry marker and packaged in lentiviral vectors. HCT116 cells were transduced with the construct and stable integrants were selected by cell sorting using mCherry marker. Cells were treated with vehicle (dimethyl sulfoxide, DMSO) or varying doses of Tadalafil (TDF) for 48 hrs with doses ranging from 0.01 μM to 100 μM. Following the treatment, cells were analyzed for GFP expression using FACS. Basal expression was calculated as the ratio of GFP signal in the absence of ligand for a given cell line to auto fluorescence of parental HCT-116 cells. Stabilization ratio was calculated as the ratio of the GFP signal observed in the presence of stabilizing ligand to the signal from the same cell line in the absence of ligand.\nHCT 116 cells transduced with the PDE5A DD derived GFP constructs were also tested with increasing doses of Tadalafil. The HCT116 cells were incubated for 48 hours with Tadalafil starting at dose 0.01 μM to 100 μM. The GFP intensity of the Tadalafil treated samples was compared to the parental untransduced HCT116 and DMSO treated cells for each construct. The mean fluorescence intensity was calculated for each sample and used to calculate the stabilization ratios as well as the basal expression for each construct. The stabilization ratios are shown in Table 19 and Table 20 and the basal expression is show in Table 21."}}, "data": [{"molecule": "B1", "values": [{"measurement": "Mean Fluorescence intensity", "setting": "[1]; Sildenafil (10 μM) +", "result": 5861}, {"measurement": "Mean Fluorescence intensity", "setting": "[1]; Sildenafil (10 μM) −, vehicle alone", "result": 1658}, {"measurement": "Stabilization ratio", "setting": "[1]; fold change in GFP intensity, Sildenafil 10 μM vs vehicle alone", "result": 3.5}, {"measurement": "MFI", "setting": "[2]; DMSO (no Tadalafil)", "result": 22601}, {"measurement": "Basal expression", "setting": "[2]; Table 21, MFI with DMSO / parental HCT116, Tadalafil experiment", "result": 17.66}, {"measurement": "Stabilization ratio with Tadalafil", "setting": "[2]; Tadalafil 0.01 μM vs DMSO", "result": 1.0}, {"measurement": "MFI", "setting": "[2]; Tadalafil 0.01 μM", "result": 22787}, {"measurement": "Stabilization ratio with Tadalafil", "setting": "[2]; Tadalafil 0.02 μM vs DMSO", "result": 1.0}, {"measurement": "MFI", "setting": "[2]; Tadalafil 0.02 μM", "result": 23274}, {"measurement": "Stabilization ratio with Tadalafil", "setting": "[2]; Tadalafil 0.05 μM vs DMSO", "result": 1.0}, {"measurement": "MFI", "setting": "[2]; Tadalafil 0.05 μM", "result": 23278}, {"measurement": "Stabilization ratio with Tadalafil", "setting": "[2]; Tadalafil 0.14 μM vs DMSO", "result": 1.1}, {"measurement": "MFI", "setting": "[2]; Tadalafil 0.14 μM", "result": 24532}, {"measurement": "Stabilization ratio with Tadalafil", "setting": "[2]; Tadalafil 0.41 μM vs DMSO", "result": 1.2}, {"measurement": "MFI", "setting": "[2]; Tadalafil 0.41 μM", "result": 26765}, {"measurement": "Stabilization ratio with Tadalafil", "setting": "[2]; Tadalafil 1.23 μM vs DMSO", "result": 1.6}, {"measurement": "MFI", "setting": "[2]; Tadalafil 1.23 μM", "result": 35325}, {"measurement": "Stabilization ratio with Tadalafil", "setting": "[2]; Tadalafil 3.7 μM vs DMSO", "result": 2.6}, {"measurement": "MFI", "setting": "[2]; Tadalafil 3.7 μM", "result": 59821}, {"measurement": "Stabilization ratio with Tadalafil", "setting": "[2]; Tadalafil 11.11 μM vs DMSO", "result": 4.1}, {"measurement": "MFI", "setting": "[2]; Tadalafil 11.11 μM", "result": 92400}, {"measurement": "Stabilization ratio with Tadalafil", "setting": "[2]; Tadalafil 33.33 μM vs DMSO", "result": 5.4}, {"measurement": "MFI", "setting": "[2]; Tadalafil 33.33 μM", "result": 122658}, {"measurement": "Stabilization ratio with Tadalafil", "setting": "[2]; Tadalafil 100 μM vs DMSO", "result": 6.2}, {"measurement": "MFI", "setting": "[2]; Tadalafil 100 μM", "result": 139002}]}]}
